The results in this text go back to PMC4119988 (British Journal of Cancer, 2014).

The target of the assay is OTU domain-containing protein 1 (Homo sapiens (Human)., UniProt Q5VV17). Put plainly: far-Western, overlay or dot blot.
Chain of OTU domain-containing protein 1 (Q5VV17 whole entry, the tested form may be a part): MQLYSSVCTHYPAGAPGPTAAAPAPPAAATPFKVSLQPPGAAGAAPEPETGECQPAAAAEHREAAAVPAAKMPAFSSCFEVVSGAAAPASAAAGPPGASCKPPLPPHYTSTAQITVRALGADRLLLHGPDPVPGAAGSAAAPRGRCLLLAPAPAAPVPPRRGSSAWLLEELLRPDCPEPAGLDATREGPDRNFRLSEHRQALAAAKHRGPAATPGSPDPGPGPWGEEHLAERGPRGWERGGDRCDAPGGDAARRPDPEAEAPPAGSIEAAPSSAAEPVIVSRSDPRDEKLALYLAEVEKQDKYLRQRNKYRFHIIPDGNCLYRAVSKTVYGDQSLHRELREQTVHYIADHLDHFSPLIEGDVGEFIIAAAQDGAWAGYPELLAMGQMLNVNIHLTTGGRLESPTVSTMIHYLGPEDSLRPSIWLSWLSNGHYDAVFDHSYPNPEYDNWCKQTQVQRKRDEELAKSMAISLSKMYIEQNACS

B1: scFv-C1 (scFv, V domains shown)
VH: EVQLLESGGGLVQPGGSLGLSCVASGFTFSDRWMSWVRQAPGKGLEWVAKIKQDGSEKLYVDSVKGRFTIPRDNSKNSLYLQMDSLRAEDTAVYYCVRGAGWLLDHWGQGILVTVSS
VL: SYVLTQPPSVSVAPGKTARITCGGNNIGRKSVHWYQQKPGQAPVLVVYDDSDRPSGIPERFSGSNSGNTATLTISRVEAGDEADYYCQVWDSSSDHSNWVFGGGTQLTVL
As for B1, the binding result is given as “binds”.
